In patent publication US20240294670A1 (University of Texas, published 2024):

Assays:
recombinant human CHI3L1 [1] = target: T1, recombinant human CHI3L1 (human, UniProt P36222 22-383); assay: ELISA: human CHI3L1 coated on the plate, B cell culture supernatant 100 ul/well, A450
T1 construct: His-tagged recombinant protein (Sino Biological 11227-H08H, or in-house HEK293 protein with 6xHIS-tag and avi-tag); also called hCHI3L1; hChi3l1
Experimental: (§1) FIG. 7. The ELISA binding of the supernatant antibody to the human CHI3L1. (hCHI3L1), and mouse CHI3L1 (mCHI3L1). The CHI3L1 protein was coated on maxi-sorp 96-well plates, cell culture supernatant (100 ul/well) was used for binding on the antigen coated plate. Binding signals (A450 nm) are shown in Y-axis and CHI3L1 mAbs are shown on X-axis.
(§2) Binding affinity of anti-CHI3L1 monoclonal antibodies to the CHI3L1 protein using ELISA method. Binding of CHI3L1 by monoclonal antibodies was first screened by ELISA using supernatants collected from the B cell cultures and cross reactivity to mouse CHI3L1 protein was determined (FIG. 7).

recombinant mouse CHI3L1 [2] = target: T2, recombinant mouse CHI3L1 (mouse, UniProt Q61362 30-389, limits assumed); assay: ELISA: mouse CHI3L1 coated on the plate, B cell culture supernatant 100 ul/well, A450
T2 construct: His-tagged; also called mCHI3L1; mChi3l1
Experimental: as §1, §2

recombinant human CHI3L1 [3] = target: T1, recombinant human CHI3L1; assay: Octet BLI
recombinant mouse CHI3L1 [4] = target: T2, recombinant mouse CHI3L1; assay: Octet BLI
recombinant human CHI3L1 [5] = target: T1, recombinant human CHI3L1; assay: BLI (Octet), mAb on protein A sensor, CHI3L1 in solution, 1:1 fit
Experimental: (§3) FIG. 8. Kinetic binding sensorgrams collected on Octet instrument for determination of kon and koff rates for each CHI3L1 antibody.
(§4) Binding affinity of anti-CHI3L1 monoclonal antibodies determined using Bio-layer interferometry (BLI), a sensor-based Octet instrument. […] Following by kinetics buffer washing to baseline, the loaded biosensors were exposed to a series of recombinant CHI3L1 protein at 0.1-200 nM range and background subtraction was used to correct for any background from sensor drifting. All experiments were performed with shaking at 1,000 rpm. Background wavelength shifts were measured from reference biosensors that were loaded with antibody and followed with buffer without antigen. ForteBio's data analysis software was used to fit the data to a 1:1 binding model to extract an association rate and dissociation rate. The KD was calculated using the ratio of koff/kon and the estimated values of KD for CHI3L1 mAbs in Table C.

recombinant mouse CHI3L1 [6] = target: T2, recombinant mouse CHI3L1; assay: as above
Experimental: as §3, §4

T1 sequence (P36222 22-383 limits assumed): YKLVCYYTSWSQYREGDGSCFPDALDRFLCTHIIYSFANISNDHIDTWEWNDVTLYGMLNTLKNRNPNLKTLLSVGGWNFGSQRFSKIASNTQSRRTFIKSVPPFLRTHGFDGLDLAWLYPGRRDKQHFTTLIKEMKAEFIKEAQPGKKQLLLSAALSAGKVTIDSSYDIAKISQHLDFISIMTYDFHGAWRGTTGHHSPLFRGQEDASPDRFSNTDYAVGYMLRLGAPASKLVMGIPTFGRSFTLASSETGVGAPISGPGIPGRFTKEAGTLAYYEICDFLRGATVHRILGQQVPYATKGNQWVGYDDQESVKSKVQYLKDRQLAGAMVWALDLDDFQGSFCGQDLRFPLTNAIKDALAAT
T2 sequence (Q61362 30-389 limits assumed): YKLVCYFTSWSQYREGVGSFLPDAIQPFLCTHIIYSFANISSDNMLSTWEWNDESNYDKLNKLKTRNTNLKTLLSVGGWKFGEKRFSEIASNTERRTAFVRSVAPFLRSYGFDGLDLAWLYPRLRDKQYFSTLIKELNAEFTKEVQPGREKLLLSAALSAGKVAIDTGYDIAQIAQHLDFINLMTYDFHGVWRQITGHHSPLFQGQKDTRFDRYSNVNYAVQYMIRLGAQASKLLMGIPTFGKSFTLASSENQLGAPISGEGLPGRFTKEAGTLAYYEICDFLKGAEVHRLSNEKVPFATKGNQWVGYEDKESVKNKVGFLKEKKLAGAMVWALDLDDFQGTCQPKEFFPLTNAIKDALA

B1: anti-CHI3L1 monoclonal antibody C28 (antibody, V domains shown)
VH: QQLKESGGDLVKPGASLTLTCTASGFSFSSGYYMCWVRQAPGKGLEWIACIGASSGLTNYASWAKGRFTISKTSSTTVTLRMTSLTAADTATYFCARVYLGGADYEQFNLWGPGTLVTVSS
VL: AQVLTQTPSSASEPVGGTVTIKCQAGESVSSRVAWYQQKPGQPPKLLIFDASALASGVSSRFTGSGSGTQFTLTISDLECADAATYYCQNYYGISGVAFGGGTEVVVK
notes: Rabbit mAb
B1: binds (recombinant human CHI3L1 [1]); no binding (recombinant mouse CHI3L1 [2]).

B2: anti-CHI3L1 monoclonal antibody C29 (antibody, V domains shown)
VH: QEQLVESGGDLVKPEGSLTLTCTASGFSFSDNYWMCWVRQAPGKGLEWIGCIYIGFSGTTYYASWAKGRFTISKASSTTVTLQMTSLTGADTATYFCARGVFYVGSGYWYYLNLWGPGTLVTISS
VL: DVVMTQTPSSVSAAVGGTVTIKCQASQSIASYLAWYQQKPGQPPKLLIYRASTLASGVPSRFKGSGSGTEYTLTISDLECADAATYYCQTTYVGGSGNAFGGGTKVEIK
notes: Rabbit mAb
B2: binds (recombinant human CHI3L1 [1]); no binding (recombinant mouse CHI3L1 [2]).

B3: humanized C59 antibody C59Hu (antibody, V domains shown)
VH: EVQLVESGGGLVQPGGSLRLSCAASGFTISSDYYMCWVRQAPGKGLEWIGCIYIGSGTDTYYADSVKGRFTISKHNSKNTLYLQMTSLRAEDTAVYYCARDKGWSNAWGFYFQLWGQGTLVTVSS
VL: DIQMTQSPSSLSASVGDRVTITCQASQSIGKYLNWYQQKPGKAPKLLIYSSSSLASGVPSRFSGSGFGTDFTLTISSLQPEDFATYYCQQGYSYVDLENGFGGGTKVEIK
notes: Humanized form of C59
For B3, the Kd (recombinant human CHI3L1 [3]) was 4.5 nM, the koff (recombinant human CHI3L1 [3]) was 0.000635 s⁻¹ and the kon (recombinant human CHI3L1 [3]) was 141000 M⁻¹ s⁻¹. The Kd (recombinant mouse CHI3L1 [4]) was 4.44 nM, the koff (recombinant mouse CHI3L1 [4]) was 0.00095 s⁻¹ and the kon (recombinant mouse CHI3L1 [4]) was 214000 M⁻¹ s⁻¹.

B4: humanized C7 antibody C7Hu (antibody, V domains shown)
VH: QVQLVESGGGVVQPGRSLRLSCAASGFTLTTYWVCWVRQAPGKGLEWVACIDAGSITYYTTWARGRFTISRDNSTNTLFLQMNSLRAEDTAVYYCARDAHYTYALVLWGRGTLVTVSS
VL: DIQMTQSPSSVSASVGDRVTIKCQASEDIESYLAWYQQKPGKAPKLLIYDASDLASGVPSRFSGSGSGTDFTLTISSLQPEDAATYYCQGYSYGSSYVGFGGGTKVEIK
notes: Humanized form of C7
For B4, the Kd (recombinant human CHI3L1 [3]) was 0.88 nM, the koff (recombinant human CHI3L1 [3]) was 0.000492 s⁻¹ and the kon (recombinant human CHI3L1 [3]) was 559000 M⁻¹ s⁻¹.

B5: anti-CHI3L1 monoclonal antibody C53 (antibody, V domains shown)
VH: QEQLVESGGDLVKPGASLTLTCTASGFSFSSSHYMCWVRQAPGKGLEWIACIYLGDDSTYYASWVNGRFSISKTSSTTVTLQMTSLTAADTATYFCARHGYNLAIHNYIIWGPGTLVTVSS
VL: DVVMTQTPSSVEAGVGGTVTIKCQASESSSRHLSWYQQKPGQRPKLLIYWASTLASGVPSRFQGSGSGTEFTLTISDLECADAATYYCQSYYGLSNNGWRYAFGGGTEVVVK
notes: Rabbit mAb from single B cells, expressed as full length IgG in HEK293
B5 was tested, and the Kd (recombinant human CHI3L1 [5]) was < 0.001 nM, the koff (recombinant human CHI3L1 [5]) was < 1e-07 s⁻¹ and the kon (recombinant human CHI3L1 [5]) was 137000 M⁻¹ s⁻¹. It also gave a Kd (recombinant mouse CHI3L1 [6]) of 3.54 nM, a koff (recombinant mouse CHI3L1 [6]) of 0.000273 s⁻¹ and a kon (recombinant mouse CHI3L1 [6]) of 77300 M⁻¹ s⁻¹.

B6: anti-CHI3L1 monoclonal antibody C56 (antibody, V domains shown)
VH: QEQLVESGGDLVKPGASLTLTCTASGFSFSSSYWICWVRQAPGKGLELIACIYPSSSGSTDYASWAKGRFTISKTSSTTVTLQMTSLTAADTATYFCARDIPYNIHGYTTGFNLWGPGTLVTVSS
VL: ALVMTQTPASVEAAVGGTVTIKCQASQSIGSNLAWYQQKPGQPPKLLIYSASTLASGVSSRFKGSRSGTEFTLTISDLECADAATYYCQFTYYGSSDVDVFGGGTKVVVE
notes: as for B5
With B6 the Kd (recombinant human CHI3L1 [5]) was < 0.001 nM, the koff (recombinant human CHI3L1 [5]) was < 1e-07 s⁻¹ and the kon (recombinant human CHI3L1 [5]) was 189000 M⁻¹ s⁻¹. It also gave a Kd (recombinant mouse CHI3L1 [6]) of 7.92 nM, a koff (recombinant mouse CHI3L1 [6]) of 0.000592 s⁻¹ and a kon (recombinant mouse CHI3L1 [6]) of 74800 M⁻¹ s⁻¹.

B7: anti-CHI3L1 monoclonal antibody C59 (antibody, V domains shown)
VH: QSVEESGGDLVKPGASLTLTCTASGFTISSDYYMCWVRQAPGKGLEWIGCIYIGSGTDTYYASWAKGRFTISKTSSTTVTLQMTSLTAADTATYFCARDKGWSNAWGFYFQLWGPGTLVTVSS
VL: DPVLTQTPASVEVPVGGTVTINCQASQSIGKYLNWYQQKPGQPPKLLIYSSSSLASGVSSRFKGSGFGTQFTLTISGVQCADAATYYCQQGYSYVDLENGFGGGTELEIL
notes: Rabbit mAb from single B cells, expressed as full length IgG in HEK293; also called clone 59; C59mAb
B7 showed a Kd (recombinant human CHI3L1 [5]) of 1.42 nM, a koff (recombinant human CHI3L1 [5]) of 0.000235 s⁻¹ and a kon (recombinant human CHI3L1 [5]) of 166000 M⁻¹ s⁻¹. For the same binder, the Kd (recombinant mouse CHI3L1 [6]) was 3.43 nM, the koff (recombinant mouse CHI3L1 [6]) was 0.000402 s⁻¹ and the kon (recombinant mouse CHI3L1 [6]) was 117000 M⁻¹ s⁻¹.
